Assays:
[1] = biological target: T1, mouse VSTM5 (SEQ ID NO:11) expressed on HEK-293T cells (mouse, UniProt Q9D806 28-199); assay: FACS, IgG1 at 22 nM on 293-muVSTM5 cells; grade from ratio to 293-MT control cells (850-2000)
T1 construct: also called mouse VSTM5 untagged
T1 sequence: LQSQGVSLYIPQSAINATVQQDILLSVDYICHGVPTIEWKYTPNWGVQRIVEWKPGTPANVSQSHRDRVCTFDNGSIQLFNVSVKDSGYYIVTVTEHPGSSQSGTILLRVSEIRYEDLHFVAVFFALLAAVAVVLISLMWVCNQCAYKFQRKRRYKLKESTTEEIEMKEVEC

[2] = biological target: T2, human VSTM5-EGFP (SEQ ID NO:133) expressed on HEK-293 cells (human); assay: FACS, IgG1 at 22 nM on 293-huVSTM5 (VSTM5-EGFP) cells; grade from ratio to 293-MT control cells (850-2000)
T2 construct: Full-length human VSTM5 fused at its C-terminus to EGFP; also called VSTM5_GFP

[3] = biological target: T1, mouse VSTM5 (SEQ ID NO:11) expressed on …; assay: FACS titration of the human IgG1 on 293-muVSTM5 cells, panel 'Ab binding vs. mouse VSTM5'; y axis MFI (anti-Human A647)
[4] = biological target: T2, human VSTM5-EGFP (SEQ ID NO:133) …; assay: FACS titration of the human IgG1 on 293-huVSTM5 cells, 293-MT control cells as open squares; y axis MFI (anti-Human A647)
[5] = biological target: T3, VSTM5-ECD-Ig H:H (human VSTM5 ECD fused to human IgG1 Fc, SEQ ID NO:130) (human); assay: FACS of tosyl-activated beads coated with anti-CD3 and 0 to 320 ug/ml VSTM5-ECD-Ig, stained with Alexa 647 conjugated 53-01.B11
T3 construct: also called VSTM5-ECD-Ig fusion protein; VSTM5HH
Protocol: Tosyl activated beads (Invitrogen, Cat#14013) at 500×10⁶/ml were coated with anti-CD3 mAb and Fc fusion proteins in a two-step protocol: with 50 ug/ml human anti-CD3 clone UTCH1 (R&D systems, Cat# mab 100) in sodium phosphate buffer at 37° C. overnight, followed with 0-320 ug/ml of VSTM5-ECD-Ig fusion protein (human ECD of VSTM5 fused with Fc of human IgG1) for another overnight incubation at 37° C. In the second step, control human Fc was added together with Fc fusion protein so that the total amount of protein is 160 ug/ml (Bioxcell, Cat# BE0096) for the 0, 20, 40, 80 and 160 ug/ml coating condition (except for the 320 ug/ml coating condition).
The amount of anti-CD3 antibody bound to the beads was analyzed using goat anti-mouse 647 (Jackson ImmunoResearch, Cat#115-606-146).

[6] = biological target: T4, human VSTM5 (SEQ ID NO:132) expressed on HEK-293T cells (human, UniProt A8MXK1 29-200); assay: flow cytometry on HEK293T cells expressing untagged human VSTM5; antibody at 1 nM (0.15 ug/ml), PE goat anti-human secondary 1:200
T4 construct: For the western blot, whole cell extracts were used; no signal peptide limits are stated; also called human VSTM5 untagged; HEK293T recombinant cells expressing human VSTM5
T4 sequence: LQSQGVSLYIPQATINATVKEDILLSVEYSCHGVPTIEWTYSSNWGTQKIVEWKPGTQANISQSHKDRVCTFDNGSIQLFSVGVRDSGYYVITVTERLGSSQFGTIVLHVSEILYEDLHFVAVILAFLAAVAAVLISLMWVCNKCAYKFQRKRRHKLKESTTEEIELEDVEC
From the text: To verify the cell-surface expression of human VSTM5 in HEK293T recombinant cells (FIG. 8C), cells expressing the protein were stained with monoclonal VSTM5 antibody (S53-01-B11, described in Example 12 and 13 herein) and appropriate Isotype control followed by Goat a human PE conjugated Ab (Cat#
Non expressing cell line (HEK293T_pIRESpuro3) was stained under the same conditions and used for a negative control.

[7] = biological target: T5, VSTM5 on human peripheral blood leukocytes (Homo sapiens, UniProt A8MXK1); assay: FACS, AF647 conjugated antibody on red-cell-lysed human peripheral blood of 3 donors, Fc receptors blocked with human IgG, against Synagis AF647
T5 construct: full-length, cell surface, endogenous; also called endogenous human VSTM5
T5 sequence (membrane protein, looked up): T4 sequence
Protocol: Human peripheral blood was collected from 3 healthy donors. Red blood cells were lysed with RBC Lysis Buffer (eBiosciences Cat#00-4333-57) according to the manufacturer's protocol. Cells were incubated with 400 ug/ml human IgG (Jackson Immunoresearch #009-000-003) for 20 min on ice to block Fc receptors and then stained with cocktails consisting of Synagis® AF647, and anti-VSTM5 antibodies disclosed in Example 12, i.e., anti-VSTM5 AF647 (clone 44-2.E06 or 53-01.B11), anti-CD11b PE (Biolegend Cat#301305), anti-CD45 PerCp Cy5.5 (Biolegend #304207), anti-CD14 FITC (Biolegend cat#352610), or anti-CD41 PE (Biolegend Cat#303705) for 30 min on ice. All AF647 antibodies were conjugated at Compugen using Alexa Fluor® 647 Antibody Labeling Kit (Life Technologies Cat# A-20186) according to the manufacturer's protocol. Cells were washed twice with FACS Buffer (1% BSA, 0.1% Sodium Azide, PBS) and acquired on Intellicyte FACS machine. Data was analyzed by FlowJo and cell subsets defined as below: Monocytes: CD14⁺CD11b⁺, Neutrophils: CD11b⁺CD14^low, Lymphocytes FSC^lowSSC^lo, Eosinophils SSC^hi, platelets: CD45⁻CD41⁺. Staining of anti-VSTM5 antibodies to these cells was compared to staining with Synagis.

VSTM5 monomer [8] = biological target: T6, VSTM5 monomer (UniProt A8MXK1 29-147, limits assumed); assay: SPR, VSTM5 monomer binding to the IgG
T6 construct: also called monomeric VSTM5 antigen; VSTM5 antigen
T6 sequence (looked up): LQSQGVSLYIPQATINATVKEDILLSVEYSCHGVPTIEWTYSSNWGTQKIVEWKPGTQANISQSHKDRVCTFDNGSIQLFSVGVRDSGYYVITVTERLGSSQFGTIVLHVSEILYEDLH

VSTM5 monomer [9] = biological target: T6, VSTM5 monomer; assay: SPR, VSTM5 monomer binding to the IgG (equilibrium binding constant)
[10] = biological target: T1, mouse VSTM5 (SEQ ID NO:11) expressed on …; assay: FACS, IgG1 at 22 nM on 293-muVSTM5 cells; grade from ratio to 293-MT control cells (50-400)
[11] = biological target: T2, human VSTM5-EGFP (SEQ ID NO:133) …; assay: FACS, IgG1 at 22 nM on 293-huVSTM5 (VSTM5-EGFP) cells; grade from ratio to 293-MT control cells (50-400)

B1: 53-01.B11 (antibody, V domains shown)
VH: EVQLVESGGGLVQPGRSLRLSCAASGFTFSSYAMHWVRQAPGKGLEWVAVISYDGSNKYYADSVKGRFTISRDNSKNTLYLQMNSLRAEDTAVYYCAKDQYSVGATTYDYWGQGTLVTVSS
VL: QPVLTQSSSASASLGASVKLTCSLSSGHSSYAIAWHQQQPEKGPRYLMKLNSDGSHSKGDGIPDRFSGSSSGAERYLTISSLQSEDEADYYCQTWGSGIQVFGGGTKLTVLG
notes: also called S53-01-B11; S53-01.B11
ratio of 293-muVSTM5 cell binding / 293-MT control cell binding (FACS) at 22 nM mAb [1]: 850 to 2000 ratio
ratio of 293-huVSTM5 cell binding / 293-MT control cell binding (FACS) at 22 nM mAb [2]: 850 to 2000 ratio
EC50 (read off the curve) [3]: ~0.002 µM
EC50 (read off the curve) [4]: ~0.003 µM
binding result [5]: binds
binding result [6]: binds
binding result [7]: binds

B2: 50-01.B01 (antibody, V domains shown)
VH: QVQLQESGPGLMKPSQTLSLTCTVSGDSITRGSSYWSWIRQSDGKGLEWIGHIYSGGDTDYNPALKSRVTISADASRGQFLLRLTSMTAADTAVYYCARDRGAYGMDVWGQGTTVTVSS
VL: QPVLTQSSSASASLGASVKLTCTLSSEHDRYAIAWLQQKPEKGPRYLMKVNSDGSHRKGDGIPDRFSGSSSGAERYLTISRLQSEDEADYYCQTWGIGIRVFGGGTQLTVLG
notes: also called 50-01.801
Kd (VSTM5 monomer [8]): 0.657 µM
Kd (VSTM5 monomer [9]): 0.657 µM
ratio of 293-muVSTM5 cell binding / 293-MT control cell binding (FACS) at 22 nM mAb [10]: 50 to 400 ratio
ratio of 293-huVSTM5 cell binding / 293-MT control cell binding (FACS) at 22 nM mAb [11]: 50 to 400 ratio

— US20160272707A1 (COMPUGEN, published 2016)
